Patent US20130039923A1 (Novo Nordisk, published 2013)
Residue numbers refer to the chain shown, from its start. Ends that are not written are not given here.

Columns and labels:
[1] = molecular target: T1, Peptide no. 86 (Figure 6A); assay: 18mer hIL20 peptide array on cellulose, 4 residue walk; fluorescein-labelled antibody; fluorescence as OD
T1 construct: also called Peptide no
T1 peptide: NYQTPDHYTLRKISSLAN

[2] = molecular target: T2, Peptide no. 87 (Figure 6A); assay: as above
T2 construct: also called Peptide no
T2 peptide: PDHYTLRKISSLANSFLT

[3] = molecular target: T3, recombinant human interleukin-20 (human, UniProt Q9NYY1 25-176); assay: SPR (Biacore 3000/T100), antibody amine-coupled on CM5, recombinant hIL20 injected 3.125-100 nM, 1:1 Langmuir, 25 C; antibody from HEK293
T3 construct: also called hIL20; IL20
T3 sequence: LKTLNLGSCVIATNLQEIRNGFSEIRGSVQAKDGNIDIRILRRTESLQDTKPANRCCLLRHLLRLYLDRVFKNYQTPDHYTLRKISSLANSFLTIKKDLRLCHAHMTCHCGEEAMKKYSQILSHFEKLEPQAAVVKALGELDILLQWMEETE

[4] = molecular target: T4, Peptide no. 43 (Figure 8A); assay: Ala-scan peptide array of hIL20 74-96 on cellulose; fluorescein-labelled antibody; fluorescence as OD
T4 construct: Ala-scan peptide on the array; also called Peptide no; P77A
T4 peptide: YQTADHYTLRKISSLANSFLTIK

[5] = molecular target: T5, Peptide no. 47 (Figure 8A); assay: as above
T5 construct: Ala-scan peptide on the array; also called Peptide no; T81A
T5 peptide: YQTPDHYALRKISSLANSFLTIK

[6] = molecular target: T6, Peptide no. 48 (Figure 8A); assay: as above
T6 construct: Ala-scan peptide on the array; also called Peptide no; L82A
T6 peptide: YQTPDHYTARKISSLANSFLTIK

[7] = molecular target: T7, Peptide no. 49 (Figure 8A); assay: as above
T7 construct: Ala-scan peptide on the array; also called Peptide no; R83A
T7 peptide: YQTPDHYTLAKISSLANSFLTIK

[8] = molecular target: T8, Peptide no. 50 (Figure 8A); assay: as above
T8 construct: Ala-scan peptide on the array; also called Peptide no; K84A
T8 peptide: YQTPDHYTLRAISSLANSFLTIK

[9] = molecular target: T9, Peptide no. 51 (Figure 8A); assay: as above
T9 construct: Ala-scan peptide on the array; also called Peptide no; I85A
T9 peptide: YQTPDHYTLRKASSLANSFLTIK

[10] = molecular target: T10, Peptide no. 52 (Figure 8A); assay: as above
T10 construct: Ala-scan peptide on the array; also called Peptide no; S86A
T10 peptide: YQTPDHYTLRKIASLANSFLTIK

[11] = molecular target: T11, Peptide no. 53 (Figure 8A); assay: as above
T11 construct: Ala-scan peptide on the array; also called Peptide no; S87A
T11 peptide: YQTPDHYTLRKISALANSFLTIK

[12] = molecular target: T12, Peptide no. 54 (Figure 8A); assay: as above
T12 construct: Ala-scan peptide on the array; also called Peptide no; L88A
T12 peptide: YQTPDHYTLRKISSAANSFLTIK

[13] = molecular target: T13, Peptide no. 55 (Figure 8A); assay: as above
T13 construct: Ala-scan peptide on the array; also called Peptide no; N90A
T13 peptide: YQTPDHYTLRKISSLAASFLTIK

[14] = molecular target: T14, Peptide no. 59 (Figure 8A); assay: as above
T14 construct: Ala-scan peptide on the array; also called Peptide no; T94A
T14 peptide: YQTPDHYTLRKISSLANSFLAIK

[15] = molecular target: T15, Peptide no. 4 (Figures 7A, 7B) (N-terminus acylated); assay: array of terminally truncated, acylated hIL20 peptides on cellulose; fluorescein-labelled antibody; fluorescence as OD
T15 construct: peptide array on cellulose
T15 peptide: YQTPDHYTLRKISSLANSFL

[16] = molecular target: T16, Peptide no. 7 (Figures 7A, 7B) (also: N-terminus acylated); assay: as above
T16 construct: peptide array on cellulose
T16 peptide: YQTPDHYTLRKISSLAN

[17] = molecular target: T17, Peptide no. 14 (Figures 7A, 7B) (N-terminus acylated); assay: as above
T17 construct: peptide array on cellulose
T17 peptide: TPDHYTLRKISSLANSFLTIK

[18] = molecular target: T18, Peptide no. 15 (Figures 7A, 7B) (N-terminus acylated); assay: as above
T18 construct: peptide array on cellulose
T18 peptide: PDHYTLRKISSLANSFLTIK

[19] = molecular target: T19, Peptide no. 16 (Figures 7A, 7B) (also: N-terminus acylated); assay: as above
T19 construct: peptide array on cellulose
T19 peptide: DHYTLRKISSLANSFLTIK

[20] = molecular target: T20, Peptide no. 17 (Figures 7A, 7B) (also: N-terminus acylated); assay: as above
T20 construct: peptide array on cellulose
T20 peptide: HYTLRKISSLANSFLTIK

[21] = molecular target: T21, Peptide no. 1 (Figures 7A, 7B) (N-terminus acylated); assay: as above
T21 construct: peptide array on cellulose
T21 peptide: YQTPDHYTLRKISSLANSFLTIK

B1: human anti-hIL20 monoclonal antibody 15D2 (antibody, V domains shown)
VH: QVQLVQSGAEVKRPGASVKVSCKASGYTFTNDIIHWVRQAPGQRLEWMGWINAGYGNTQYSQNFQDRVSITRDTSASTAYMELISLRSEDTAVYYCAREPLWFGESSPHDYYGMDVWGQGTTVTVSS
VL: AIQLTQSPSSLSASVGDRVTITCRASQGISSALAWYQQKPGKAPKLLIYDASSLESGVPSRFSGSGSGTDFTLTISSLQPEDFATYYCQQFNSYPLTFGGGTKVEIKR
notes: also called 15D2-wt; 15D2 wild-type
With B1 the binding result [1] was “binds”, the binding result [2] was “binds” and the Kd [3] was 0.032 nM. For the same binder, the koff [3] was 6.3e-05 s⁻¹ and the kon [3] was 1.9e+06 M⁻¹ s⁻¹.

B2: human anti-hIL20 monoclonal antibody 5B7 (antibody, human IgG4, V domains shown)
VH: B1 VH with T30S, N31S, D32H, I34M, Q59K, S69T, S106L
VL: B1 VL
notes: described as human IgG4; also called 5B7-wt
B2: binds [4]; binds [5]; binds [6]. B2: binds [7]; binds [8]; binds [9]. B2: binds [10]; binds [11]; binds [12]. B2: binds [13]; binds [14]; binds [15]. B2: binds [16]; binds [17]; binds [18]. B2: binds [19]; binds [20]; binds [21].
